Test results published in the Immune Epitope Database (IEDB).

How the values were obtained:
[1] = target: HLA-A*01:01; test: IEDB peptide-MHC binding, purified MHC/direct/fluorescence; filed as Kd, often an IC50 or EC50 that approximates it; ≥ and ≤ were set here for values at or beyond the usual limits of such assays
[2] = target: HLA-A*11:01; test: as above
[3] = target: HLA-B*18:01; test: as above; details: source organism: Mycobacterium tuberculosis
[4] = target: HLA-B*48:01; test: as above; details: source organism: Mycobacterium tuberculosis
[5] = target: HLA-B*51:01; test: as above; details: source organism: Mycobacterium tuberculosis
[6] = target: HLA-B*27:05; test: as above
[7] = target: HLA-B*46:01; test: as above; details: source organism: Mycobacterium tuberculosis
[8] = target: HLA-A*69:01; test: as above
[9] = target: HLA-B*15:01; test: as above
[10] = target: HLA-B*58:01; test: as above
[11] = target: HLA-B*08:02; test: as above; details: source organism: Mycobacterium tuberculosis CDC1551
[12] = target: HLA-A*31:01; test: as above
[13] = target: HLA-B*07:02; test: as above
[14] = target: HLA-B*57:01; test: as above; details: source organism: Mycobacterium tuberculosis
[15] = target: HLA-B*15:17; test: as above; details: source organism: Mycobacterium tuberculosis
[16] = target: HLA-B*15:09; test: as above; details: source organism: Mycobacterium tuberculosis CDC1551
[17] = target: HLA-B*40:01; test: as above
[18] = target: HLA-A*03:01; test: as above
[19] = target: HLA-A*02:06; test: IEDB peptide-MHC binding, purified MHC/competitive/fluorescence; filed as Kd, often an IC50 or EC50 that approximates it; ≥ and ≤ were set here for values at or beyond the usual limits of such assays
[20] = target: HLA-A*02:01; test: as above
[21] = target: HLA-A*30:01; test: as above
[22] = target: HLA-B*08:01; test: as above; details: source organism: Mycobacterium tuberculosis CDC1551
[23] = target: HLA-A*02:01; test: IEDB peptide-MHC binding, purified MHC/competitive/radioactivity; filed as Kd, often an IC50 or EC50 that approximates it; ≥ and ≤ were set here for values at or beyond the usual limits of such assays
[24] = target: HLA-A*02:17; test: as above
[25] = target: HLA-A*24:02; test: IEDB peptide-MHC binding, purified MHC/competitive/fluorescence; filed as Kd, often an IC50 or EC50 that approximates it; ≥ and ≤ were set here for values at or beyond the usual limits of such assays
[26] = target: HLA-B*27:05; test: as above
[27] = target: HLA-A*02:01; test: IEDB peptide-MHC binding, purified MHC/direct/fluorescence; filed as Kd, often an IC50 or EC50 that approximates it; ≥ and ≤ were set here for values at or beyond the usual limits of such assays
[28] = target: HLA-A*30:01; test: as above
[29] = target: HLA-B*08:01; test: as above
[30] = target: HLA-A*24:03; test: as above
[31] = target: HLA-B*35:01; test: as above
[32] = target: HLA-A*26:01; test: as above
[33] = target: HLA-A*02:06; test: IEDB peptide-MHC binding, purified MHC/competitive/radioactivity; filed as Kd, often an IC50 or EC50 that approximates it; ≥ and ≤ were set here for values at or beyond the usual limits of such assays; details: source organism: Dengue virus 2 Jamaica/1409/1983
[34] = target: HLA-A*02:03; test: as above; details: source organism: Dengue virus 2 Jamaica/1409/1983
[35] = target: HLA-A*01:01; test: IEDB peptide-MHC binding, purified MHC/competitive/fluorescence; filed as Kd, often an IC50 or EC50 that approximates it; ≥ and ≤ were set here for values at or beyond the usual limits of such assays; details: source organism: Human immunodeficiency virus 1
[36] = target: HLA-A*11:01; test: as above; details: source organism: Human immunodeficiency virus 1
[37] = target: HLA-B*18:01; test: as above; details: source organism: Human immunodeficiency virus 1
[38] = target: HLA-B*15:01; test: as above; details: source organism: Human immunodeficiency virus 1
[39] = target: HLA-A*02:03; test: as above; details: source organism: Human immunodeficiency virus 1
[40] = target: HLA-B*57:01; test: as above; details: source organism: Human immunodeficiency virus 1
[41] = target: HLA-B*15:17; test: as above; details: source organism: Human immunodeficiency virus 1
[42] = target: HLA-A*02:11; test: as above; details: source organism: Pseudomonas putida F1
[43] = source organism: Mycobacterium tuberculosis
[44] = source organism: Mycobacterium tuberculosis CDC1551
[45] = source organism: Dengue virus 4 Philippines/H241/1956
[46] = source organism: Shigella boydii Sb227
[47] = source organism: Corynebacterium glutamicum
[48] = source organism: Dengue virus 2 Jamaica/1409/1983
[49] = source organism: Human immunodeficiency virus 1
[50] = source organism: Escherichia coli
[51] = source organism: Dengue virus 1 Singapore/S275/1990
[52] = source organism: Giardia lamblia ATCC 50803
[53] = source organism: Pseudomonas putida

## ALRSRWRAL
[1]; [43]
  Kd: ≥ 20000 nM
[2]; [43]
  Kd: ≥ 20000 nM
[3]
  Kd: ≥ 20000 nM
[4]
  Kd: ≥ 20000 nM
[5]
  Kd: ≥ 20000 nM
[6]; [43]
  Kd: ≥ 20000 nM
[7]
  Kd: ≥ 20000 nM
[8]; [43]
  Kd: ≥ 20000 nM
[9]; [43]
  Kd: 504 nM
[10]; [43]
  Kd: ≥ 20000 nM
[11]
  Kd: ≥ 20000 nM
[12]; [43]
  Kd: ≥ 20000 nM
[13]; [43]
  Kd: 59.5 nM
[14]
  Kd: ≥ 20000 nM
[15]
  Kd: ≥ 20000 nM
[16]
  Kd: ≥ 20000 nM
[17]; [43]
  Kd: ≥ 20000 nM
[18]; [43]
  Kd: ≥ 20000 nM
[19]; [44]
  Kd: 556 nM
[20]; [44]
  Kd: ≥ 20000 nM
[21]; [44]
  Kd: 132 nM
[22]
  Kd: 14 nM

## DLMEFIDGI
[23]; [45]
  Kd: 74.2 nM
[24]; [45]
  Kd: 1970 nM

## EYARQVQMI
[25]; source organism: Vibrio vulnificus YJ016
  Kd: ≤ 1 nM

## GLDDSALDA
[19]; [46]
  Kd: 2100 nM
[20]; [46]
  Kd: 402 nM

## GRADTKILF
[26]; source organism: Influenza A virus (A/swine/Hong Kong/4/1976(H3N2))
  Kd: 74.1 nM

## GRQAPTADV
[26]; source organism: Escherichia coli str. K-12 substr. MG1655
  Kd: 285 nM

## IVAWTRTAT
[1]; [47]
  Kd: ≥ 20000 nM
[27]; [47]
  Kd: ≥ 20000 nM
[2]; [47]
  Kd: ≥ 20000 nM
[6]; [47]
  Kd: ≥ 20000 nM
[8]; [47]
  Kd: ≥ 20000 nM
[9]; [47]
  Kd: ≥ 20000 nM
[10]; [47]
  Kd: ≥ 20000 nM
[28]; [47]
  Kd: ≥ 10000 nM
[29]; [47]
  Kd: 2720 nM
[30]; [47]
  Kd: 13100 nM
[12]; [47]
  Kd: ≥ 20000 nM
[13]; [47]
  Kd: 53.6 nM
[31]; [47]
  Kd: 893 nM
[32]; [47]
  Kd: ≥ 20000 nM
[17]; [47]
  Kd: ≥ 20000 nM
[18]; [47]
  Kd: ≥ 20000 nM

## IYLRRYFEI
[25]; source organism: Escherichia coli E22
  Kd: ≤ 0.1 nM

## IYNTVVLTI
[25]; source organism: Vibrio parahaemolyticus AQ3810
  Kd: 0.4 nM

## KLAEAIFKL
[33]
  Kd: 14.8 nM
[24]; [48]
  Kd: 19.1 nM
[34]
  Kd: 8.68 nM

## KSLYNTVAVLY
[19]; [49]
  Kd: 300 nM
[35]
  Kd: 4460 nM
[36]
  Kd: ≥ 20000 nM
[37]
  Kd: 275 nM
[38]
  Kd: ≥ 20000 nM
[21]; [49]
  Kd: 4780 nM
[39]
  Kd: ≥ 20000 nM
[40]
  Kd: 4820 nM
[41]
  Kd: 484 nM

## LAAPCRNAL
[1]; [50]
  Kd: ≥ 20000 nM
[27]; [50]
  Kd: ≥ 20000 nM
[2]; [50]
  Kd: ≥ 20000 nM
[6]; [50]
  Kd: ≥ 20000 nM
[8]; [50]
  Kd: ≥ 20000 nM
[9]; [50]
  Kd: 3730 nM
[10]; [50]
  Kd: ≥ 20000 nM
[28]; [50]
  Kd: ≥ 10000 nM
[29]; [50]
  Kd: 849 nM
[30]; [50]
  Kd: ≥ 5000 nM
[12]; [50]
  Kd: ≥ 20000 nM
[13]; [50]
  Kd: 27.6 nM
[31]; [50]
  Kd: 25.6 nM
[32]; [50]
  Kd: ≥ 20000 nM
[17]; [50]
  Kd: ≥ 20000 nM
[18]; [50]
  Kd: ≥ 20000 nM

## PYPYLFYKF
[25]; source organism: Vibrio cholerae B33
  Kd: ≤ 0.1 nM

## RLITANPIV
[23]; [51]
  Kd: 61.3 nM
[24]; [51]
  Kd: 121 nM

## RLLTKPWDV
[23]; [48]
  Kd: 27.6 nM
[24]; [48]
  Kd: 1430 nM

## RQVCFFSAT
[19]; [52]
  Kd: 6.3 nM
[20]; [52]
  Kd: 3270 nM

## VMTEGRHAV
[1]; [53]
  Kd: ≥ 20000 nM
[27]; [53]
  Kd: 409 nM
[2]; [53]
  Kd: ≥ 20000 nM
[6]; [53]
  Kd: ≥ 20000 nM
[8]; [53]
  Kd: 712 nM
[9]; [53]
  Kd: 3700 nM
[10]; [53]
  Kd: ≥ 20000 nM
[29]; [53]
  Kd: 7120 nM
[30]; [53]
  Kd: ≥ 20000 nM
[12]; [53]
  Kd: 991 nM
[13]; [53]
  Kd: 330 nM
[32]; [53]
  Kd: ≥ 20000 nM
[17]; [53]
  Kd: ≥ 20000 nM
[18]; [53]
  Kd: ≥ 20000 nM
[42]
  Kd: ≤ 1 nM
